Assay results from article PMC2835468 (Matrix biology : journal of the International Society for …, 2009).
Read-outs that look alike come from different tables or passages of the source.

Assays:
Assay in all cases: enzyme inhibition kinetics
[1] = molecular target: T1, ADAMTS4-1 (full-length human ADAMTS-4, C-terminal FLAG-tag) (human, UniProt O75173 213-837)
T1 sequence (looked up): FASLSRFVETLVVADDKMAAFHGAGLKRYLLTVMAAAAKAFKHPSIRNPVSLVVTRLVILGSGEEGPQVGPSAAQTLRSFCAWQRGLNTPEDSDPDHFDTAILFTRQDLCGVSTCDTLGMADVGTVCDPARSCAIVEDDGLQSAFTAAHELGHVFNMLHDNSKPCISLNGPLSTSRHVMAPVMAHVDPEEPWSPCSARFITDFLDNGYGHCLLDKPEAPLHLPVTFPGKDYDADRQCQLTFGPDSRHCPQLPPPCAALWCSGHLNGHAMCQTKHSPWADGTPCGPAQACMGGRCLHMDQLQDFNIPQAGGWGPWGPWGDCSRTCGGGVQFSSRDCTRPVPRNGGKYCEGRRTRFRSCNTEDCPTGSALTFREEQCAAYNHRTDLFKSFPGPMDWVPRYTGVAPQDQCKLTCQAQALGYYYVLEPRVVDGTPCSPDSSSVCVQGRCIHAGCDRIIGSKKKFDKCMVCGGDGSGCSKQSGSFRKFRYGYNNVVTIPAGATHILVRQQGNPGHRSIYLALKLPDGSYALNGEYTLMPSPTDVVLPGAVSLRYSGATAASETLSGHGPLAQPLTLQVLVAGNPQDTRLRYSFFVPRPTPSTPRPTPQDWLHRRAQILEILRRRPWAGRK

[2] = molecular target: T2, ADAMTS4-4 (human ADAMTS-4 deletion mutant, C-terminal FLAG-tag) (human, UniProt O75173 213-519)
T2 sequence (looked up): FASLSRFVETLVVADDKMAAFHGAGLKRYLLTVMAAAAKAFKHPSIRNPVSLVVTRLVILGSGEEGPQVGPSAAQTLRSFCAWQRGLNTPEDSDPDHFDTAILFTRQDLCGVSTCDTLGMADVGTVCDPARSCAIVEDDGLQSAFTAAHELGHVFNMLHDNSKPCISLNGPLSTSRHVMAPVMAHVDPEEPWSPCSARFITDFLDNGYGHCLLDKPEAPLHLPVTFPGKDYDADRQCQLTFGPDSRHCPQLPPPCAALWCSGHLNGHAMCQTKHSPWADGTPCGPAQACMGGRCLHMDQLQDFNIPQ

[3] = molecular target: T3, ADAMTS4-3 (human ADAMTS-4 deletion mutant, C-terminal FLAG-tag) (human, UniProt O75173 213-575)
T3 sequence (looked up): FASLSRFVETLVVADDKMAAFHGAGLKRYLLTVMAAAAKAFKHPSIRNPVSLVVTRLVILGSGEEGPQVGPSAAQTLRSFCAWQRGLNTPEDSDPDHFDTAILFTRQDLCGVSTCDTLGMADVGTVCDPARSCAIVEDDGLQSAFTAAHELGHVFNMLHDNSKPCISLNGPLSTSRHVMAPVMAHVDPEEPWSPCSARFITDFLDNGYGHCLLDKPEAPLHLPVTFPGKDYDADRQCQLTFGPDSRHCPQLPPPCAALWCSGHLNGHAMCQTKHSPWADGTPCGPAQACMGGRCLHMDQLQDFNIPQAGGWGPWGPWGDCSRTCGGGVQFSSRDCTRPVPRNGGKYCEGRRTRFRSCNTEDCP

[4] = molecular target: T1, ADAMTS4-1 (full-length human ADAMTS-4, …); remark: listed apart in the source
[5] = molecular target: T4, ADAMTS4-2 (human ADAMTS-4 deletion mutant, C-terminal FLAG-tag) (human, UniProt O75173 213-685)
T4 sequence (looked up): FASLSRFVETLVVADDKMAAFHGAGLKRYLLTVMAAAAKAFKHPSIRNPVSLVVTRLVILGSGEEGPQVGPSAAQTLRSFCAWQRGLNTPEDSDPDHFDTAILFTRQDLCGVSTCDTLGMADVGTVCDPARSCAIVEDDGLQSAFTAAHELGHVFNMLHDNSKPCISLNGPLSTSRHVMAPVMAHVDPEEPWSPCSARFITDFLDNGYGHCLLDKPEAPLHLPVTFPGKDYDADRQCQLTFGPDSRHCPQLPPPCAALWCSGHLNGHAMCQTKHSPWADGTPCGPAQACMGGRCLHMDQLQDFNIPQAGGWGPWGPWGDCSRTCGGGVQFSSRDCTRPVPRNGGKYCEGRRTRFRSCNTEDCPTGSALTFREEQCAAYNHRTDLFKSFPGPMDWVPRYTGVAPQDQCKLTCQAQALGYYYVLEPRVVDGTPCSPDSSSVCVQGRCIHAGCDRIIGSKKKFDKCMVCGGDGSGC

B1: FLAG-tagged glycosylated human TIMP-3 (full-length tissue inhibitor of metalloproteinases 3), expressed in HEK293 (natural protein, UniProt P35625 24-211, looked up)
chain: CTCSPSHPQDAFCNSDIVIRAKVVGKKLVKEGPFGTLVYTIKQMKMYRGFTKMPHVQYIHTEASESLCGLKLEVNKYQYLLTGRVYDGKMYTGLCNFVERWDQLTLSQRKGLNYRYHLGCNCKIKSCYYLPCFVTSKNECLWTDMLSNFGYPGYQSKHYACIRQKGGYCSWYRGWAPPDKSIINATDP
modifications: glycosylated (only the 27 kDa glycosylated form remained after purification; single N-glycosylation site in the C-terminal domain)
Q: How did the Ki [1] turn out when B1 was run?
A: 0.39 nM

Q: And the Ki [2]?
A: 0.38 nM

Q: What about the Ki [3] of the same binder?
A: 0.4 nM

Q: And the Ki [4]?
A: 0.22 nM

Q: What about the Ki [5] of the same binder?
A: 0.22 nM
